Reference: patent EP0730651B1

What was measured:
[1] = target: soluble KGF receptor (FGFR(IIIb); K-sam) alkaline phosphatase fusion (FRAP) (murine) (UniProt P21803); assay: displacement of 125I-FGF-7 from soluble FGFR2(IIIb)-AP
[2] = target: soluble KGF receptor (FGFR(IIIb); K-sam) alkaline phosphatase fusion (FRAP) (murine) (UniProt P21803); assay: competition with 125I-FGF-7, receptor binding experiments like those of Example 6

Sequence of UniProt P21803 (P21803 22-377): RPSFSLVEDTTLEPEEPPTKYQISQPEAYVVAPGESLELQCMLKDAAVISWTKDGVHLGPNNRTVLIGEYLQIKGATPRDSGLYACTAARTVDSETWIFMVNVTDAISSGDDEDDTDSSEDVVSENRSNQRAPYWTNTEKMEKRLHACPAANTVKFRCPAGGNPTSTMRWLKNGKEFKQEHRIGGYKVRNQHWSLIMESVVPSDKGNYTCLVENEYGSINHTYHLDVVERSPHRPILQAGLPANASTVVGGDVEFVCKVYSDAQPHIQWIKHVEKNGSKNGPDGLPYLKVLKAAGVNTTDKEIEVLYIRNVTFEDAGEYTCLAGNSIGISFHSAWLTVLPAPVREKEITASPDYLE

Question: With “FGF-2LA (human FGF-2 with surface loop residues 118 to 122 replaced by the corresponding bovine FGF-1 sequence) (ligand)” as the substance, how does the fold weaker binding than FGF-7 or FGF-1 [1] read?
Answer: Its fold weaker binding than FGF-7 or FGF-1 is 5 times less.

Question: “FGF-2LK (FGF-2 loop mutant containing the 9-residue loop sequence Ala-Lys-Trp-Thr-His-Asn-Gly-Gly-Glu from FGF-7) (from UniProt P09038 1-117; P09038 123-155) (ligand)” was tested. Which fold weaker potency of competition than unlabelled FGF-7 [2] did it give?
Answer: The fold weaker potency of competition than unlabelled FGF-7 was 100 times weaker.
